Legend:
[1] = molecular target: T1, recombinant human CD30 protein (UniProt P28908 19-385); assay: SPR
T1 chain: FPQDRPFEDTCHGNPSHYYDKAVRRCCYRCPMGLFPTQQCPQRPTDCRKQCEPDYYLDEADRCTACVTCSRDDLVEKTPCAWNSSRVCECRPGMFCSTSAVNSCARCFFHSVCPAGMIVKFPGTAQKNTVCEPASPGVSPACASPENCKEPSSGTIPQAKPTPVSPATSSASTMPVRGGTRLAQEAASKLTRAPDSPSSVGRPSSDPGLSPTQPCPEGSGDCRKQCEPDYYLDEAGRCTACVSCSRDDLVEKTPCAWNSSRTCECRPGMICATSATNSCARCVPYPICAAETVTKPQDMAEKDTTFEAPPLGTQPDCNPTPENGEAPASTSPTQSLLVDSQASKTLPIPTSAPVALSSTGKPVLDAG

[2] = molecular target: T2, human CD30/TNFRSF8 on Jurkat human acute T cell leukemia cells (Clone E6-1) (human, UniProt P28908 19-595); assay: flow cytometry on Jurkat cells, PE anti-mouse IgG secondary
T2 construct: Endogenous CD30 on Jurkat cells; also called hCD30; hCD30/TNFRSF8
T2 sequence: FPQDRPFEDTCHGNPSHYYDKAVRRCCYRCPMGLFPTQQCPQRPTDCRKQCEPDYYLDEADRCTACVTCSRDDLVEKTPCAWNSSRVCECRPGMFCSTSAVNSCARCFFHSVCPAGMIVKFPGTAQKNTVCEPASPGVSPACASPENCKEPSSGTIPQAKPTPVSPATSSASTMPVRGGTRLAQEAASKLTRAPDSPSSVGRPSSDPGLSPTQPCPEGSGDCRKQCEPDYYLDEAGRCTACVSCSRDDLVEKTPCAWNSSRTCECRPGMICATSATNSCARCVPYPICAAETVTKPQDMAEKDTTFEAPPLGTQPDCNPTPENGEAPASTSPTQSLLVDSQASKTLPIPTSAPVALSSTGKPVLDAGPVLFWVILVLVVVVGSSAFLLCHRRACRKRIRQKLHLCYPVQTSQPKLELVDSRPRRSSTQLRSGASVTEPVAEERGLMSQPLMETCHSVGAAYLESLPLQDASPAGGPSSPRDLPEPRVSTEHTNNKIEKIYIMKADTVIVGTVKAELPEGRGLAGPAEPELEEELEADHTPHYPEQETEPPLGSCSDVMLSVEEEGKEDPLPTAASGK
Method: Jurkat human acute T cell leukemia cell line (Clone E6-1, ATCC Catalog #TIB-152) was stained with Mouse Anti-Human CD30 Monoclonal Antibody (Clone 81316.11, filled histogram) or isotype control antibody (Catalog #MAB002, open histogram), followed by Phycoerythrin-conjugated Anti-Mouse IgG Secondary Antibody (Catalog #F0102B).
Jurkat cells were harvested and washed two times in 2 mL of 1x flow staining buffer (FC001). The cells were resuspended in 1x flow staining buffer to a concentration of ~1.0×10⁶ cells/mL. About 90 µL of the cell suspension was added to each flow tube. About 10 µL of either 25 µg/mL Msxh CD30 or MsIgG1 was added to the appropriate tube, and the tubes were vortexed and then incubated for 20 minutes at room temperature. Cells were washed two times in 2 mL of 1× flow staining buffer. About 10 µL of goat anti-Mouse IgG PE secondary antibody was added to each tube, vortexed, and then incubated in the dark for 20 minutes at room temperature. Cells were washed two times in 2 mL of 1× flow staining buffer. 100 µL of 2× Sytox Blue Dead Cell Stain (ThermoFisher, S34857) was added and the cells were analyzed by flow cytometry.

B1: Mouse Anti-Human CD30 Monoclonal Antibody (Clone 81316.11) (antibody, V domains shown)
VH: QVQLKESGPGLVAPSQSLSITCTVSGFSLTSYGVHWVRQPPGKGLEWLGVIWAGETINYNLALMSRLSISKDNSKSQVFLKMNSLQTEDTAMYYCARDQGEYGNYGWYFDVWGAGTTVTVSS
VL: DIQMTQTTSSLSASLGDRVTISCSASQGISNYLNWYQQKPDGTVKLLIYYTSSLHSGVPSRFSGSGSGTDYSLTISNLEPEDIATYYCQHYSKLPPTFGGGTKLEIKR
notes: It is a mouse monoclonal, and the isotype control used beside it is MsIgG1; also called anti-hCD30 antibody; recombinant hCD30 antibody
[1]
  Kd: 5.1 nM
[2]
  binding result: binds
